Experimental data taken from patent US11898183B2, “Programmed microorganisms to attenuate a disease” (priority 2020, dated 2024).

B1: Glycosyltransferase (UGT) (SEQ ID NO: 48) Barbarea vulgaris (protein, listed as Barbarea vulgaris)
chain: MKSELVFIPYPGIGHLRPTVEVAKLLVDREPRLSISVFILPFISGDEVGASDYISALSAASNDRLRYKVIFTGDQETAEPTKLTLHIENQVPKVRTAVAKLIDEYSKLLDSPKIVGFVLDMFCTSMIDVANEFELPSYMFFTSSAGILAVSFHVQVLYDEKKCNFSETMFEDSEAELILPSLTRPYPVKSLPYALFRTEMLIMHVNLARRFRELKGILVNTVDELEPHALKFLLSGITPPAYPVGPLLHLESNQDDESEDEKRSEIIMWLDEQPASSVVFLCFGSMGGFSEEQTREIAIALERSGHRFLWSLRRESPNIDKELPGEFTNLEEVLPEGFFDRTKGIGKVIGWAPQVAVLENPAIGGFVTHGGWNSVLESLWFGVPTAMWPLYAEQKFNAFVMVEELGLAVEIKKYWRGDLLLGRSAMEIVTADEIERGITCLMQQDSDVRKRVKEMKGKCHVALMDGGSSTLALDKFVEDVTKNI
B2: Glycosyltransferase (UGT) (SEQ ID NO: 44) Lycium barbarum (protein)
chain: MGHLVSTVEMAKQLVDREDQLSITVLIMTLPTETKIPSYTKSLSSNYTSRIRLLELTQPETSVNMGSATHPMKFMSEFITSYKGRVKDAVADMFSSLSSVKLAGFVIDMFCTAMIDVANDFGVPSYLFYTSGAAMLGLQFHFQSLISQNVLSYLDSESEVLIPTYINPVPVKFLPGLILDNDEYSIMFLDLAGRFKETKGIMVNTFVEVESHALKALSDDEKIPPIYPVGPILNLGGGNDGHGEEYDSIMKWLDGQPNSSVVFLCFGSMGSFEEDQVKEVANALESSGYQFLWSLRQPPPKDKLQFPSEFENLEEVLPEGFLQRTKGRGKMIGWAPQVAILSHPSVGGFVSHCGWNSTLESVRSGVPMATWPMYAEQQSNAFQLVKDLEMAVEIKMDYRKDFMTINQPVLVKAEEIGNGIRQLMDLVNKIRAKVRKMKEKSEAAIMEGGSSYVALGNFVETVMKS
modifications: Depcits the amino acid sequence of Glycosyltransferase (UGT of Lycium barbarum)
B3: Glycosyltransferase (UGT) (SEQ ID NO: 42) Mates domestica (protein, listed as Malus domestica)
chain: MKKVELVFIPSPGAGHHLPTLQFVKRLIDRNDRISITILAIQSYFPTTLSSYTKSIAASEPRIRFIDVPQPQDRPPQEMYKSRAQIFSLYIESHVPSVKKIITNLVSSSANSSDSIRVAALVVDLFCVSMIDVAKELNIPSYLFLTSNAGYLAFMLHLPILHEKNQIAVEESDPDWSIPGIVHPVPPRVLPAALTDGRLSAYIKLASRFRETRGIIVNTFVELETHAITLFSNDDRVPPVYPVGPVIDLDDGQEHSNLDQAQRDKIIKWLDDQPQKSVVFLCFGSMGSFGAEQVKEIAVGLEQSGQRFLWSLRMPSPKGIVPSDCSNLEEVLPDGFLERTNGKKGLICGWAPQVEILAHSATGGFLSHCGWNSILESLWHGVPIATWPMYAEQQLNAFRMVRELGMALEMRLDYKAGSADVVGADEIEKAVVGVMEKDSEVRKKVEEMGKMARKAVKDGGSSFASVGRFIEDVIGQN
B4: CYP82D (SEQ ID NO: 40) Panax ginseng (protein)
chain: METFLAQLYSTTTIAALFVLLVLYYFSPWTRINKKNVAPEAGGGWPIIGHLHLLGGSKLPHLVFGSMADKYGPIFTVRLGVQRSLVVSSWEMVKDIFTTNDVIVSGRPKFLAAKHLSYNYAMFGFSPYGSFWLELRKITSLQLLSNRRLELLKHVRVSEMEISMRQLYKLWSEKKNGSGRVLMDMKKWFGELNLNVTFRMVAGKRYFGGGAASNDEEARRCRRVVREFFRLLGVVVVADSLPFLRWLDLGGYERAMKETAREMDSIVSVWLEEHRIKSDSSGDDANMEQDFMDVMLSAVKNVDLCGFDAHTVIKATCMVIISSGTDTTTVELTWALCLLLNNRHVLKKAQEELDNVVGKQRRVKESDLNNLIYLQAIVKETLRLYPAGQLGGQREFSDDCTVGGYHVPKRTRLVVNLWKLHRDPRIWSDPTEFRPERFLERHKEIDVKGQHFELIPFGAGRRVCPGITFGLQMFHLVLASLLHGFDISTPSDAPVDMAEGAGLTNAKITPLEILIAPRLSPSLYE
modifications: Panax ginseng
B5: Glycosyltransferase (UGT) (SEQ ID NO: 46) Cicer arietinum (protein, listed as Cicer arietinum)
chain: MKKIEVVFIPSPGVGHLISTLEFANLLINRNNRLNITVLVINFPKTVEKQTNYSLTESENLHVINLPQTTTHVPSTSDVGNSISALVETQKSNVKQAVSNLTGTLAAFVVDMFCTTMIDVANELGVPSLVFFTSGVAFLGLMLHLHTIWEQQDTELLLQQDELDIPSFANPVATNTLPTLVLRKEWESSFIKYGNGLKKASGIIVNSFHELEPHAVRSFLEDPTLRDLPIYPVGPILNPKSNVDSDDVIKWLDDQPPSSVVFLCFGSMGTFDEEQVREIALAIERSGVRFLWSLRKPQPQGTMVPPSDYTLSQMLEVLPEGFLDRTANIGRVIGWAPQVQVLAHQATGGFVSHCGWNSTLESIYYGVPIATWPLFAEQQTNAFELVRELKIAVEIALDYRLEFDIGRNYLLDADKIERGIRGVLDKDGEVRKKVKEMSQKSRNVLLEGGSSYTYLGQLIDYITNQV
B6: 2-Deoxy-d-ribose-5-phosphate aldolase (DERA) (SEQ ID NO: 50) Desulfatibacillum aliphaticivorans (protein)
chain: MTGPKICVVGACNIDLISYVERLPVLGETLHGKKFSMGFGGKGANQAVMAAKLGGEVAMVGKLGRDVFGENTLANFKKLGVNVSHVHFTEEAFSGVAPIAVDDNGANSIIIVTGASDLLSAEEIRAAENAIAKSKVLVCQLEIPMEQNLEALRIARKNNVPTIFNPAPARPGLPDELYQLSDIFCPNESETEILTGMPVETMEQAEQAAKALLERGPKTVILTLGERGCLLVDANGARHIPTRKVEAIDTTGAGDCFVGSLAFFLAAGKSLEDAINRANKIAAVSVCGQGTQSSFPGASELDPEILSDIQPAESQAPAMSAKDLAQYIDHTLLKPEAPLSAFDKICEEAILHQFRSVCVNSCKISYIAKKLKGTGVDACAVIGFPLGAMSTAAKAFEAKQAVMDGAAELDMVINVGALKSGDFDAVFDDIKAVRDAAPLPIILKVIIETCLLTDEEKARACRIAKAADADFVKTSTGFSTGGATLEDIALMRDTVGPYMGVKASGGIKDAKTAIAMIEAGATRIGAGAGVEIVSGLQSDADGSY
modifications: Depicts the amino acid sequence of 2-Deoxy-d- ribose-5-phosphate aldolase (DERA) of Desulfatibacillum aliphaticivorans
B7: Cinnamte 4 hydroxylase 4 coumarate coenzyme ligase fusion (C4H4CL) (SEQ ID NO: 12) Azospirillum sp. (protein)
chain: MDLLLLEKTLLALFIAATIAITISKLRGKRFKLPPGPIPVPVFGNWLQVGDDLNHRNLTDLAKRFGDIFLLRMGQRNLVVVSSPELAKEVLHTQGVEFGSRTRNVVFDIFTGKGQDMVFTVYGTLAEMRRIMTVPFFTNKVVQQYRFGWEFEAQSVVDDVKKNPEACSSGIVLRRRLQLMMYNIMYRIMFDRRFESEEDPLFVKLKALNGERSRLAQSFEYNYGDFIPILRPFLKGYLKLCKEVKDRRLQLFKDYFVDERKKLGSTKSTTNEGLKCAIDHILDAQQKGEINDDNVLYIVENINVAAIETTLWSIEWGIAELVNHQKIQNKVREEIDRVLGPGHQVTEPDLQKLPYLQAVIKETLRLRMAIPLLVPHMNLHDAKLSGFDIPAESKILVNAWWLANNPAQWKKPEEFRPERFLEEESHVEANGNDFRYLPFGVGRRSCPGIILALPILGITLGRLVQNFELLPPPGQSKIDTAEKGGQFSLHILKHSTIVCKPRSFNGGGGSGGGGSGGGGSMTIQRWWRNRESLNRVLCDLLAGEFARLRPGGSPPAHPHRWPETLPLGPDGVGADSLDLLQLAAALNEALHLHRSGIEDYLLMHRTVGDWLDVCEAALGRFDGALSFRTSGSTGEGKRCEHPLAALEEEADALAALLSGGAEAPRRVVSVVPAHHIYGFLFTVLLPDRLAVPVVDGRGTSPGGLAARLGPGDLVVAHPDWWGALLRSGAALPDGVTGTSSTAPCPPDTARGVRGVGLARLVEVFGSSETAGLGWRESPDAPFRPFPWWRFGDDGRVTRRLADGTVLSATLQDRLSHDEEGFRPSGRLDTVVQVGGVNVSLAGVQAHLAGHPDVEAAAVRLMRPEEGTRLKAFIVPARTAPPREELYRRLTDWIEATLPAPHRPRALAFGPALPVNGMGKPCDWPLATCR
modifications: Depicts the amino acid sequence of the enzyme Cinnamte 4 hydroxylase 4 coumarate coenzyme ligase fusion (C4H4CL)

Tested on: pathway specific substrates
Test: Enzyme functionality of pathway enzyme homologs and fusion constructs in lysed E. coli cell extracts, product by HPLC
Type: biochemical, E. coli BL21
Conditions: recombinant E. coli BL21 clone, lysed cell extract
Procedure: As per one of the possible implementations of the present disclosure, two proteins—cinnamate-4-hydroxylate (C4H) and 4-coumaroyl CoA-ligase (4CL) were expressed as one fusion protein. Also, other two proteins which were expressed as one fusion protein were hydroxycinnamoyl-CoA quinate hydroxycinnamoyltransferase (HCT) and p-coumaroyl quinate 3′-hydroxylase (HCTC3H). The fusion gene and the corresponding fusion protein was prepared using the following method. […] The enzyme fusion constructs were made for the selected genes (Table 5). Pathway genes and the fusion constructs were individually cloned in E. coli expression vector pET28+ under T7 promoter and transformed in E. coli BL21 cells. Recombinant bacterial cells were induced with IPTG and enzyme functionality was tested with pathway specific substrates (Table 5) using lysed E. coli cell extracts. HPLC analysis was carried out to quantify the product formation and in turn shortlisting of efficient enzymes for functional pathway assembly towards Etoposide in E. coli.
The E. coli transformants were grown overnight at 37° C. in 1 ml of M9 minimal media containing ampicillin (100 mg/1), in 96-well format. The next day, 150 μl of each culture was inoculated into 3 ml M9 minimal media containing ampicillin (100 mg/1), IPTG 0.1 mM in 24-well format, and incubated at 30° C. and 200 rpm for ˜20 hours. The following day, cells were spun down and pellets were resuspended in 100 μl of lysis buffer containing 10 mM Tris-HCl pH 8, 5 mM MgCl2, 1 mM CaCl2) and complete mini protease inhibitor EDTA-free (3 tablets/100 ml) (Hoffmann-La Roche, Basel, Switzerland) and frozen at −80° C. for at least 15 minutes to promote cell lysis. Pellets were thawed at room temperature and 50 μl of DNase mix (1 μl of 1.4 mg/ml DNase in H2O (˜80000 u/ml), 1.2 μl of MgCl2 500 mM and 47.8 μl of 4×PBS buffer solution) was added to each well. Plates were shaken at 500 rpm for 5 min at room temperature to allow degradation of genomic DNA. Plates were spun down at 4000 rpm for 30 min at 4° C. and six μl of the lysates were used in in vitro using appropriate substrates for enzymes as per Table 6. In each case, the resulting compounds were measured by HPLC. Results were analysed in comparison with the lysates expressing the corresponding controls (the empty plasmid). […]

[1] = substrate tested: Desmethylepipodophyllotoxin

Row | Molecule | Enzyme activity in terms of product formation (in %) [1] | also measured
1 | B1 | 43% | –
2 | B2 | 67% | –
3 | B3 | 54% | –
4 | B4 | – | Enzyme activity in terms of product formation (in %) (substrate tested: Deoxypodophyllotoxin): 93%
5 | B5 | 97% | –
6 | B6 | – | Enzyme activity in terms of product formation (in %) (substrate tested: Desmethylepipodophyllotoxin glucopyranoside): 83%
7 | B7 | – | Enzyme activity in terms of product formation (in %) (substrate tested: Cinnamate): 97%
